Molecular target: T1, 人源重组SARS-Cov-2-N蛋白 (SARS-CoV-2, UniProt P0DTC9 1-419)
T1 construct: range 1-419; also called SARS-Cov-2-N重组蛋白; 新冠病毒N蛋白
Assay: ELISA dose-response on coated N protein

B1: 纳米抗体1B2 (VHH)
VHH: ESGGGSVQAGGSLKLSCVAFGYTYTSGCMGWFRQAPGKGREGVATICNTDGTTAYANSVKGRFTISQDNAKNTVYLQMNSLKAEDSAMYYCAAGRTPYELASGGKNWGQGTQVTVSS
notes: also called VHH4
binding result: binds

From CN114195889A (NANJING FUJIEKANG BIOTECHNOLOGY CO LTD, dated 2022)
